In patent US20220220218A1 (JIANGSU HENGRUI MEDICINE, published 2022):

T1: human CD73 (huCD73) protein, antigen of the Biacore assay (human, UniProt P21589 27-547, limits assumed)
T1 construct: also called human CD73 antigen
T1 sequence (looked up): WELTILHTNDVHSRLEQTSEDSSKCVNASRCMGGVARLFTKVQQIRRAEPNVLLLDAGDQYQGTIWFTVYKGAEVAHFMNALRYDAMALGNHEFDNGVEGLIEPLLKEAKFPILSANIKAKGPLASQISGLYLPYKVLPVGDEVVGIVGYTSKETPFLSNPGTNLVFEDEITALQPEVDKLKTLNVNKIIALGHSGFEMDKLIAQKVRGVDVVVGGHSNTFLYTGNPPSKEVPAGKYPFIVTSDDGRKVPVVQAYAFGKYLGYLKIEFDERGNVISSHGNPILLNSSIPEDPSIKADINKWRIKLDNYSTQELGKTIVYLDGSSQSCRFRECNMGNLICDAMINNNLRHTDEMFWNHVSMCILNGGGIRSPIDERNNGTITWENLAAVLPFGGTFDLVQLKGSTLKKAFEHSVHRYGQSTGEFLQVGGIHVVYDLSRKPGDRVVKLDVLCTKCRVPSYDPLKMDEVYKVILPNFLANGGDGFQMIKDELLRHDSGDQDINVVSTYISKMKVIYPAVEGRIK


Biological target: T1, human CD73 (huCD73) protein, antigen of …
Assay: SPR Biacore T200; antibody captured on Protein A chip, CD73 in flow; 1:1 Langmuir
Excerpt: In this experiment, Biacore instrument was used to determine the affinity of the humanized anti-CD73 antibodies to be tested with human CD73 (huCD73) and monkey CD73 (cynoCD73).
A certain amount of test antibody was affinity-captured with Protein A biosensing chip (Cat. #29127556, GE), and then a certain concentration of human or monkey CD73 antigen was allowed to flow through the surface of the chip. The reaction signals were detected in real time with Biacore instrument (Biacore T200, GE) to generate a binding and dissociation curve. At the end of each cycle, after the dissociation was completed, the biosensor chip was washed and regenerated with Glycine-HCl, pH1.5 (Cat. #BR-1003-54, GE). The running buffer for the assay was 1×HBS-EP buffer solution (Cat. #BR-1001-88, GE).
The data obtained from the experiment was fitted against (1:1) Langmuir model using GE Biacore T200 Evaluation version 3.0 software, and the affinity values were obtained, as shown in Table 12 and Table 13 for details.

Row | Kd [nM] | koff [s⁻¹] | kon [M⁻¹ s⁻¹] | Binder
1 | 0.166 | 5.43e-05 | 327000 | Hab110.23 (antibody, V domains shown, VL2 + VH3; recombined with human heavy and light constant regions) VH: EVQLVQSGAEVKKPGASVKVSCKASGYTFTSYTMHWVRQAPGQRLEWIGYINPNSFYIEYNQKFKDRATLTADTSASTAYMELSSLRSEDTAVYYCARGDYDLFYDMDNWGQGTTVTVSS VL: DIQMTQSPSSLSASVGDRVTITCRASQDIGNSLNWLQQKPGKAIKRLIYATFRLDSGVPSRFSGSRSGTEYTLTISSLQPEDFATYYCQQYASFPWTFGGGTKVEIK
2 | 0.277 | 4.6e-05 | 166000 | Hab127.32 (antibody, V domains shown, VL3 + VH2; recombined with human heavy and light constant regions) VH: EVQLVQSGAEVKKPGASVKVSCKASGYTFTAYFMNWVMQAPGQGLEWMGRIYHNNGDTFYSQKFKGRVTMTVDKSTSTVYMELSSLRSEDTAVYYCATSYVGDWGQGTTVTVSS VL: DIQMTQSPSSLSASVGDRVTITCRASQDIGDSLNWLQQKPGGALKRLIYATSSLDSGVPSRFSGSGSGTEYTLTISSLQPEDFATYYCLQYASFPWTFGGGTKVEIK
3 | 0.147 | 4.95e-05 | 338000 | Hab110.22 (antibody, V domains shown, VL2 + VH2; recombined with human heavy and light constant regions) VH: EVQLVQSGAEVKKPGASVKVSCKASGYTFTSYTMHWVRQAPGQRLEWMGYINPNSFYIEYNQKFKDRVTITADTSASTAYMELSSLRSEDTAVYYCARGDYDLFYDMDNWGQGTTVTVSS VL: DIQMTQSPSSLSASVGDRVTITCRASQDIGNSLNWLQQKPGKAIKRLIYATFRLDSGVPSRFSGSRSGTEYTLTISSLQPEDFATYYCQQYASFPWTFGGGTKVEIK
4 | 0.276 | 4.59e-05 | 166000 | Hab127.23 (antibody, V domains shown, VL2 + VH3; recombined with human heavy and light constant regions) VH: EVQLVQSGAEVKKPGASVKVSCKASGYTFTAYFMNWVMQAPGQGLEWIGRIYHNNGDTFYSQKFKGRATLTVDKSTSTVYMELSSLRSEDTAVYYCATSYVGDWGQGTTVTVSS VL: DIQMTQSPSSLSASVGDRVTITCRASQDIGDSLNWLQQKPGKAPKRLIYATSSLDSGVPSRFSGSGSGTEYTLTISSLQPEDFATYYCLQYASFPWTFGGGTKVEIK
5 | 0.188 | 6.2e-05 | 330000 | Hab110.24 (antibody, V domains shown, VL2 + VH4; recombined with human heavy and light constant regions) VH: EVQLVQSGAEVKKPGASVKVSCKASGYTFTSYTMHWVRQAPGQRLEWIGYINPNSFYIEYNQKFKDKATLTADTSASTAYMELSSLRSEDTAVYYCARGDYDLFYDMDNWGQGTTVTVSS VL: DIQMTQSPSSLSASVGDRVTITCRASQDIGNSLNWLQQKPGKAIKRLIYATFRLDSGVPSRFSGSRSGTEYTLTISSLQPEDFATYYCQQYASFPWTFGGGTKVEIK
6 | 0.188 | 6.94e-05 | 370000 | Hab110.32 (antibody, V domains shown, VL3 + VH2; recombined with human heavy and light constant regions) VH: EVQLVQSGAEVKKPGASVKVSCKASGYTFTSYTMHWVRQAPGQRLEWMGYINPNSFYIEYNQKFKDRVTITADTSASTAYMELSSLRSEDTAVYYCARGDYDLFYDMDNWGQGTTVTVSS VL: DIQMTQSPSSLSASVGDRVTITCRASQDIGNSLNWLQQKPGGAIKRLIYATFRLDSGVPSRFSGSRSGTEYTLTISSLQPEDFADYYCQQYASFPWTFGGGTKVEIK
7 | 0.244 | 9.4e-05 | 385000 | Hab110.35 (antibody, V domains shown, VL3 + VH5; recombined with human heavy and light constant regions) VH: EVQLVQSGAEVKKPGASVKVSCKASGYTFTSYTMHWVKQAPGQGLEWIGYINPNSFYIEYNQKFKDKATLTADTSASTAYMELSSLRSEDTAVYYCARGDYDLFYDMDNWGQGTTVTVSS VL: DIQMTQSPSSLSASVGDRVTITCRASQDIGNSLNWLQQKPGGAIKRLIYATFRLDSGVPSRFSGSRSGTEYTLTISSLQPEDFADYYCQQYASFPWTFGGGTKVEIK
8 | 0.79 | 0.000119 | 150000 | Hab127.13 (antibody, V domains shown, VL1 + VH3; recombined with human heavy and light constant regions) VH: EVQLVQSGAEVKKPGASVKVSCKASGYTFTAYFMNWVMQAPGQGLEWIGRIYHNNGDTFYSQKFKGRATLTVDKSTSTVYMELSSLRSEDTAVYYCATSYVGDWGQGTTVTVSS VL: DIQMTQSPSSLSASVGDRVTITCRASQDIGDSLNWYQQKPGKAPKRLIYATSSLDSGVPSRFSGSGSGTEFTLTISSLQPEDFATYYCLQYASFPWTFGGGTKVEIK
9 | 0.161 | 5.86e-05 | 364000 | Hab110.31 (antibody, V domains shown, VL3 + VH1; recombined with human heavy and light constant regions) VH: EVQLVQSGAEVKKPGASVKVSCKASGYTFTSYTMHWVRQAPGQRLEWMGYINPNSFYIEYNQKFKDRVTITRDTSASTAYMELSSLRSEDTAVYYCARGDYDLFYDMDNWGQGTTVTVSS VL: DIQMTQSPSSLSASVGDRVTITCRASQDIGNSLNWLQQKPGGAIKRLIYATFRLDSGVPSRFSGSRSGTEYTLTISSLQPEDFADYYCQQYASFPWTFGGGTKVEIK
10 | 0.292 | 4.86e-05 | 166000 | Hab127.22 (antibody, V domains shown, VL2 + VH2; recombined with human heavy and light constant regions) VH: EVQLVQSGAEVKKPGASVKVSCKASGYTFTAYFMNWVMQAPGQGLEWMGRIYHNNGDTFYSQKFKGRVTMTVDKSTSTVYMELSSLRSEDTAVYYCATSYVGDWGQGTTVTVSS VL: DIQMTQSPSSLSASVGDRVTITCRASQDIGDSLNWLQQKPGKAPKRLIYATSSLDSGVPSRFSGSGSGTEYTLTISSLQPEDFATYYCLQYASFPWTFGGGTKVEIK
11 | 0.228 | 8.16e-05 | 358000 | Hab110.34 (antibody, V domains shown, VL3 + VH4; recombined with human heavy and light constant regions) VH: EVQLVQSGAEVKKPGASVKVSCKASGYTFTSYTMHWVRQAPGQRLEWIGYINPNSFYIEYNQKFKDKATLTADTSASTAYMELSSLRSEDTAVYYCARGDYDLFYDMDNWGQGTTVTVSS VL: DIQMTQSPSSLSASVGDRVTITCRASQDIGNSLNWLQQKPGGAIKRLIYATFRLDSGVPSRFSGSRSGTEYTLTISSLQPEDFADYYCQQYASFPWTFGGGTKVEIK
12 | 0.28 | 4.48e-05 | 160000 | Hab127.24 (antibody, V domains shown, VL2 + VH4; recombined with human heavy and light constant regions) VH: EVQLVQSGAEVKKPGASVKVSCKASGYTFTAYFMNWVMQAPGQSLEWIGRIYHNNGDTFYSQKFKGRATLTVDKSTSTVYMELRSLRSEDTAVYYCATSYVGDWGQGTTVTVSS VL: DIQMTQSPSSLSASVGDRVTITCRASQDIGDSLNWLQQKPGKAPKRLIYATSSLDSGVPSRFSGSGSGTEYTLTISSLQPEDFATYYCLQYASFPWTFGGGTKVEIK
13 | 0.219 | 4.8e-05 | 219000 | Hab127.31a (antibody, V domains shown, VL3 + VH1a, HCDR2 hot-spot variant; full-length antibody) VH: EVQLVQSGAEVKKPGASVKVSCKASGYTFTAYFMNWVRQAPGQGLEWMGRIYHNQGDTFYSQKFKGRVTMTVDKSTSTVYMELSSLRSEDTAVYYCATSYVGDWGQGTTVTVSS VL: DIQMTQSPSSLSASVGDRVTITCRASQDIGDSLNWLQQKPGGALKRLIYATSSLDSGVPSRFSGSGSGTEYTLTISSLQPEDFATYYCLQYASFPWTFGGGTKVEIK
14 | 0.847 | 0.000118 | 140000 | Hab127.14 (antibody, V domains shown, VL1 + VH4; recombined with human heavy and light constant regions) VH: EVQLVQSGAEVKKPGASVKVSCKASGYTFTAYFMNWVMQAPGQSLEWIGRIYHNNGDTFYSQKFKGRATLTVDKSTSTVYMELRSLRSEDTAVYYCATSYVGDWGQGTTVTVSS VL: DIQMTQSPSSLSASVGDRVTITCRASQDIGDSLNWYQQKPGKAPKRLIYATSSLDSGVPSRFSGSGSGTEFTLTISSLQPEDFATYYCLQYASFPWTFGGGTKVEIK
15 | 0.257 | 4.2e-05 | 163000 | Hab127.31 (antibody, V domains shown, VL3 + VH1; recombined with human heavy and light constant regions) VH: EVQLVQSGAEVKKPGASVKVSCKASGYTFTAYFMNWVRQAPGQGLEWMGRIYHNNGDTFYSQKFKGRVTMTVDKSTSTVYMELSSLRSEDTAVYYCATSYVGDWGQGTTVTVSS VL: DIQMTQSPSSLSASVGDRVTITCRASQDIGDSLNWLQQKPGGALKRLIYATSSLDSGVPSRFSGSGSGTEYTLTISSLQPEDFATYYCLQYASFPWTFGGGTKVEIK
16 | 0.223 | 7.79e-05 | 349000 | Hab110.25 (antibody, V domains shown, VL2 + VH5; recombined with human heavy and light constant regions) VH: EVQLVQSGAEVKKPGASVKVSCKASGYTFTSYTMHWVKQAPGQGLEWIGYINPNSFYIEYNQKFKDKATLTADTSASTAYMELSSLRSEDTAVYYCARGDYDLFYDMDNWGQGTTVTVSS VL: DIQMTQSPSSLSASVGDRVTITCRASQDIGNSLNWLQQKPGKAIKRLIYATFRLDSGVPSRFSGSRSGTEYTLTISSLQPEDFATYYCQQYASFPWTFGGGTKVEIK
17 | 0.333 | 5.4e-05 | 162000 | Hab127.21 (antibody, V domains shown, VL2 + VH1; recombined with human heavy and light constant regions) VH: EVQLVQSGAEVKKPGASVKVSCKASGYTFTAYFMNWVRQAPGQGLEWMGRIYHNNGDTFYSQKFKGRVTMTVDKSTSTVYMELSSLRSEDTAVYYCATSYVGDWGQGTTVTVSS VL: DIQMTQSPSSLSASVGDRVTITCRASQDIGDSLNWLQQKPGKAPKRLIYATSSLDSGVPSRFSGSGSGTEYTLTISSLQPEDFATYYCLQYASFPWTFGGGTKVEIK
